The term Kd denotes the constant that tells how readily two partners part at equilibrium.

Consider two substances from paper PMC2896269.

The target in test [1] is LRRTM2 (UniProt O43300). As to conditions: cited from earlier work.
Test [2] addresses HA-LRRTM2 (UniProt Q8BGA3). As to the kind of experiment: immunostaining of cells or tissue.

Values joined by “and” are separate entries in the source; they are usually repeats but may differ in a detail not shown here. Identical values can stand only once.

Sequence of LRRTM2 (O43300 34-422): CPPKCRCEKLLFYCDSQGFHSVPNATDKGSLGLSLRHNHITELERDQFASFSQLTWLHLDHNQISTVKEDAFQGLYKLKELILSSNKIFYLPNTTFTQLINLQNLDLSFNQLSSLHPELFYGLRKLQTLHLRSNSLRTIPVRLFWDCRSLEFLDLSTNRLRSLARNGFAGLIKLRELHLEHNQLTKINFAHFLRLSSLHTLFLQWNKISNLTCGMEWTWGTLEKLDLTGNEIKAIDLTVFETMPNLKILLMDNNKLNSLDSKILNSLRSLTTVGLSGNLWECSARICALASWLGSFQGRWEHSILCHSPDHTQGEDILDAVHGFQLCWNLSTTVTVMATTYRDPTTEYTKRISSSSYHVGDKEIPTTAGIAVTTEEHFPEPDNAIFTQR
Sequence of Neurexin-1beta(-S4) (P58400 91-289): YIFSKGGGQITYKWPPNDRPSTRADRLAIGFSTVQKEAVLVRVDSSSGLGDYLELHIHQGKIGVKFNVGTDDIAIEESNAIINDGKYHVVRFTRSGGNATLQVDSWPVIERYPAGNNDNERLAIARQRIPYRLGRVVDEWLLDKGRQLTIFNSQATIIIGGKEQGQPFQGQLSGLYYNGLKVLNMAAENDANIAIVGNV
Sequence of HA-LRRTM2 (Q8BGA3 34-515): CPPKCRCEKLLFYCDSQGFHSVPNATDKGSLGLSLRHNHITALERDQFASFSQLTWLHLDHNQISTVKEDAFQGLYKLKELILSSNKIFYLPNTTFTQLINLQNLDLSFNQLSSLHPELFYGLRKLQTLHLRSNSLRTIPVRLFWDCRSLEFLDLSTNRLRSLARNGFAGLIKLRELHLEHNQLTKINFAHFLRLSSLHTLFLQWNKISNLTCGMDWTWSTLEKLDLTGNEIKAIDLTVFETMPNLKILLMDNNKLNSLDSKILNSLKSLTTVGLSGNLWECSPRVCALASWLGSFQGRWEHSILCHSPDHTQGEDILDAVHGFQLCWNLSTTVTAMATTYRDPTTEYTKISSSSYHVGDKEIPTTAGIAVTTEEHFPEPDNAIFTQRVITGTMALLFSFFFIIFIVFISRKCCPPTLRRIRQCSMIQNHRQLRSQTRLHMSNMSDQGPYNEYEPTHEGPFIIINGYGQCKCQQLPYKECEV

On to “Neurexin-1beta(-S4) (from UniProt P58400)”, for which, in test [1], the Kd was 7 nM and 5.8 nM.

Nrx1β(−S4)-Fc (Fc fusion) registered an equilibrium dissociation constant (Kd) in test [2] of 19.9 nM.
